According to patent publication US20190276511A1 (BIONTECH RNA PHARMACEUTICALS, published 2019):

B1: OX40L-4-1BBL (ligand)
chain: QVSHRYPRIQSIKVQFTEYKKEKGFILTSQKEDEIMKVQNNSVIINCDGFYLISLKGYFSQEVNISLHYQKDEEPLFQLKKVRSVNSLMVASLTYKDKVYLNVTTDNTSLDDFHVNGGELILIHQNPGEFCVLGGGGSGGGGSGGGGSGGGGSREGPELSPDDPAGLLDLRQGMFAQLVAQNVLLIDGPLSWYSDPGLAGVSLTGGLSYKEDTKELVVAKAGVYYVFFQLELRRVVAGEGSGSVSLALHLQPLRSAAGAAALALTVDLPPASSEARNSAFGFQGRLLHLSAGQRLGVHLHTEARARHAWQLTQGATVLGLFRVTPEIPAGLPSPRSE
notes: Duokine from HEK293, FLAG-purified; VH leader left out; homotrimer by SEC; also called Duokine OX40L-4-1BBL; not shown: N-terminal FLAG tag
B2: CD40L-4-1BBL (ligand)
chain: GDQNPQIAAHVISEASSKTTSVLQWAEKGYYTMSNNLVTLENGKQLTVKRQGLYYIYAQVTFCSNREASSQAPFIASLCLKSPGRFERILLRAANTHSSAKPCGQQSIHLGGVFELQPGASVFVNVTDPSQVSHGTGFTSFGLLKLGGGGSGGGGSGGGGSGGGGSREGPELSPDDPAGLLDLRQGMFAQLVAQNVLLIDGPLSWYSDPGLAGVSLTGGLSYKEDTKELVVAKAGVYYVFFQLELRRVVAGEGSGSVSLALHLQPLRSAAGAAALALTVDLPPASSEARNSAFGFQGRLLHLSAGQRLGVHLHTEARARHAWQLTQGATVLGLFRVTPEIPAGLPSPRSE
notes: Duokine from HEK293, FLAG-purified; VH leader left out; homotrimer by SEC; also called Duokine CD40L-4-1BBL; not shown: N-terminal FLAG tag
B3: CD27L-4-1BBL (ligand)
chain: SLGWDVAELQLNHTGPQQDPRLYWQGGPALGRSFLHGPELDKGQLRIHRDGIYMVHIQVTLAICSSTTASRHHPTTLAVGICSPASRSISLLRLSFHQGCTIASQRLTPLARGDTLCTNLTGTLLPSRNTDETFFGVQWVRPGGGGSGGGGSGGGGSGGGGSREGPELSPDDPAGLLDLRQGMFAQLVAQNVLLIDGPLSWYSDPGLAGVSLTGGLSYKEDTKELVVAKAGVYYVFFQLELRRVVAGEGSGSVSLALHLQPLRSAAGAAALALTVDLPPASSEARNSAFGFQGRLLHLSAGQRLGVHLHTEARARHAWQLTQGATVLGLFRVTPEIPAGLPSPRSE
notes: Duokine from HEK293, FLAG-purified; VH leader left out; homotrimer by SEC; also called Duokine CD27L-4-1BBL; not shown: N-terminal FLAG tag

What was measured:
CD27-Fc [1] = target: T1, CD27-Fc (human, UniProt P26842 20-191); assay: ELISA, coated receptor-Fc
T1 construct: extracellular domain; hinge included for covalent assembly; also called CD27 receptor-Fc fusion protein; not shown: human Fc gamma 1 region including the hinge region
T1 sequence (looked up): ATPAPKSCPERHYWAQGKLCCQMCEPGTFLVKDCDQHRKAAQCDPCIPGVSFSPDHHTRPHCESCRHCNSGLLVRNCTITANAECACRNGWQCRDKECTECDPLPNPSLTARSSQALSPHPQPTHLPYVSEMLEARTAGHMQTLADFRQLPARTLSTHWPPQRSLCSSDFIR

CD40-Fc [2] = target: T2, CD40-Fc (human, UniProt P25942 21-193); assay: ELISA, coated receptor-Fc
T2 construct: extracellular domain; hinge included for covalent assembly; also called CD40 receptor-Fc fusion protein; not shown: human Fc gamma 1 region including the hinge region

4-1BB receptor on cells = 4-1BB receptor on cells (human, UniProt Q07011 24-255); assay: cell-based or functional assay
OX40 receptor on cells = target: T3, OX40 receptor on cells (human, UniProt P43489 29-277); assay: cell-based or functional assay
T3 sequence (looked up): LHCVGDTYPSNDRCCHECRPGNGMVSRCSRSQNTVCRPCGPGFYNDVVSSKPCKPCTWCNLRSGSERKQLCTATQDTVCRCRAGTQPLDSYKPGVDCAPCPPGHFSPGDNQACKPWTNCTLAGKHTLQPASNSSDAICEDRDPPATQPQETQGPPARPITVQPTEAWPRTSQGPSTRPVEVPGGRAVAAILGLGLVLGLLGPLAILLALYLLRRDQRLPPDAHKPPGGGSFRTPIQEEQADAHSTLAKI

4-1BB-Fc = target: T4, 4-1BB-Fc (human, UniProt Q07011 24-186); assay: ELISA, coated receptor-Fc
T4 construct: extracellular domain; hinge included for covalent assembly; also called 4-1BB receptor-Fc fusion protein; not shown: human Fc gamma 1 region including the hinge region
Experimental: (§1) Receptor binding of the Duokines was analyzed by ELISA using fusion proteins of the extracellular region of CD40, CD27, 4-1BB and OX40, respectively, with the human Fcγ1 region including the hinge region for covalent assembly (CD40-Fc, CD27-Fc, 4-1BB-Fc, OX40-Fc). Receptor-Fc fusion proteins (200 ng/well) were coated overnight at 4° C. and remaining binding sites were blocked with PBS, 2% skimmed milk powder (2% MPBS).

OX40-Fc [3] = target: T5, OX40-Fc (human, UniProt P43489 29-214); assay: ELISA, coated receptor-Fc
T5 construct: extracellular domain; hinge included for covalent assembly; also called OX40 receptor-Fc fusion protein; not shown: human Fc gamma 1 region including the hinge region
T5 sequence (looked up): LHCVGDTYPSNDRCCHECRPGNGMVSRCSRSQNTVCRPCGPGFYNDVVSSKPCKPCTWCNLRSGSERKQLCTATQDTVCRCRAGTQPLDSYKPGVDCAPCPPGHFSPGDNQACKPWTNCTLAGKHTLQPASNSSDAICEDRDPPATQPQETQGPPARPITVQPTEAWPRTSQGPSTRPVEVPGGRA
Experimental: as §1

OX40-Fc [4] = target: T5, OX40-Fc; assay: ELISA, coated receptor-Fc; remark: listed apart in the source
CD40 receptor on cells = CD40 receptor on cells (human, UniProt P25942 21-277); assay: cell-based or functional assay
CD40-Fc [5] = target: T2, CD40-Fc; assay: ELISA, coated receptor-Fc; remark: listed apart in the source
Experimental: as §1

CD27-Fc [6] = target: T1, CD27-Fc; assay: ELISA, coated receptor-Fc; remark: listed apart in the source
Experimental: as §1

Sequence of 4-1BB receptor on cells (Q07011 24-255): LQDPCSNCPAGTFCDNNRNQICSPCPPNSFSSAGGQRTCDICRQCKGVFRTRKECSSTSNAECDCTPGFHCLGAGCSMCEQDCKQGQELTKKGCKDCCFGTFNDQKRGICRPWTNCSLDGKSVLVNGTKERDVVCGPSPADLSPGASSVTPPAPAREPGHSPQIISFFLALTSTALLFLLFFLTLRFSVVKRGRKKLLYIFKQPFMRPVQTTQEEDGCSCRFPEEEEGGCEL
T2 sequence (P25942 21-193 limits assumed): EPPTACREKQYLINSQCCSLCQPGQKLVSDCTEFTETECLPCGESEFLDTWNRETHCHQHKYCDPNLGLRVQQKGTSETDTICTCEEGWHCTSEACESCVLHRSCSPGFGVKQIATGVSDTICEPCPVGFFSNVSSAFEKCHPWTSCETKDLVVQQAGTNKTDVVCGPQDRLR
Sequence of CD40 receptor on cells (P25942 21-277): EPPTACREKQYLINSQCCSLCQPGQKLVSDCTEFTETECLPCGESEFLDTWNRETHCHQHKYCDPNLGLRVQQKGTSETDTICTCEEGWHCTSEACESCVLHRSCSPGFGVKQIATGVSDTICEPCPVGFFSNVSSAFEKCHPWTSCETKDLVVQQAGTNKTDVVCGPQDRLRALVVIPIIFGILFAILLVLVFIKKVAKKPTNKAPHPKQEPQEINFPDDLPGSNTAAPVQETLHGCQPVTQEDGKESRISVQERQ

Binder | binding result (CD27-Fc [1]) | binding result (CD40-Fc [2]) | Receptor activation (EC50, nM) (4-1BB receptor on cells) [nM] | Receptor activation (EC50, nM) (OX40 receptor on cells) [nM] | EC50 (4-1BB-Fc) [nM] | EC50 (OX40-Fc [3]) [nM] | binding result (OX40-Fc [4]) | Receptor activation (EC50, nM) (CD40 receptor on cells) [nM] | EC50 (CD40-Fc [5]) [nM] | EC50 (CD27-Fc [6]) [nM]
B1 | no binding (tested: 100 nM (FIG. 4)) | no binding (tested: 100 nM (FIG. 4)) | 2.75 | 0.85 | 1.26 | 7.17 | – | – | – | –
B2 | no binding (tested: 100 nM (FIG. 4)) | – | 0.45 | – | 2.11 | – | no binding (tested: 100 nM (FIG. 4)) | 3.01 | 10.1 | –
B3 | – | no binding (tested: 100 nM (FIG. 4)) | 1.44 | – | 1.41 | – | no binding (tested: 100 nM (FIG. 4)) | – | – | 6.34
